Measurements taken from patent US20240293512A1 (HANMI PHARM, published 2024).
Bridge positions count the residues as written; N and C are the ends. Square brackets hold non-standard residues; d marks the D form. Ends that are not written are not given here. * marks the point of attachment. Acetyl(2-(4-imidazolyl)) = O=C(Cc1c[nH]cn1)*; Aib = CC(C)(N)C(=O)O

T1: human GIP receptor (human, UniProt P48546 22-466)
T1 sequence (looked up): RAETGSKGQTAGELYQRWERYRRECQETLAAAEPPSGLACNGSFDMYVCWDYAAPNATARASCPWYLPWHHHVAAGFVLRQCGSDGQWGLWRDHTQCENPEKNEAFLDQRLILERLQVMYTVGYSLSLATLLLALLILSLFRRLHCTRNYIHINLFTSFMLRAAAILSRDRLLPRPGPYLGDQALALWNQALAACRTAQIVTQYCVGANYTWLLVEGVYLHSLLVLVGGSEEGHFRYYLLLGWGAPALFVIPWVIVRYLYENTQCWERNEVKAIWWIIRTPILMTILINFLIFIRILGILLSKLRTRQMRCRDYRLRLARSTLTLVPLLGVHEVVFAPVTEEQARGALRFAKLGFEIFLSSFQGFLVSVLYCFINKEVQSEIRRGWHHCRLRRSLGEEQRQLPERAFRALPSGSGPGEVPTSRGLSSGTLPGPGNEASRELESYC

B1: triple agonist of SEQ ID NO: 56 (peptide)
peptide: H[Aib]QGTFTSDYSKYLDEKRQKEFVNWLLAQC
modifications: bridge (positions not given here); also: ring formation between two underlined residues

These binders were tested against human GCG receptor (human, UniProt P47871 26-477) (assay: cell-based or functional assay).
Sequence of human GCG receptor (P47871 26-477): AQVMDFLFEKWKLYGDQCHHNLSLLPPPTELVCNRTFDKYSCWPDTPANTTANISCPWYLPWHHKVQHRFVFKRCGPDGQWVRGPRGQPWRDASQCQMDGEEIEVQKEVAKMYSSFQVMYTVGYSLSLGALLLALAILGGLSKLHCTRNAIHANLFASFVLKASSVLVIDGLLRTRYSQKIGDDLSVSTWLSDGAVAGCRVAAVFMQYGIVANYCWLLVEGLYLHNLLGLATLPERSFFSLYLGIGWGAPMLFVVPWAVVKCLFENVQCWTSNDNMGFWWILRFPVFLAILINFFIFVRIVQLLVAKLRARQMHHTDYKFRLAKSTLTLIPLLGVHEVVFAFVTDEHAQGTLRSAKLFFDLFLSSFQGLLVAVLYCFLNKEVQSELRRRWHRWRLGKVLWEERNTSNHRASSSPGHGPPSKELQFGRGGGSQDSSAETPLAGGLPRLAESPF

Row | Binder | In vitro activity compared with native peptide (%) vs Glucagon (cAMP EC50)
1 | H[Aib]QGTFTSDYSKYLDGQHAQCFVAWLLAGGGPSSGAPPPS [triple agonist of SEQ ID NO: 39] | 0.53%
2 | B1 | 4.9%
3 | H[Aib]QGTFTSDVSSYLLGQQQKEFIAWLVKGGGPSSGAPPPSC [triple agonist of SEQ ID NO: 5] | < 0.1%
4 | H[Aib]QGTFTSDVSSYLDGQAAKEFIAWLVKGC [triple agonist of SEQ ID NO: 1] | < 0.1%
5 | H[Aib]QGTFTSDYSIAMDEIHQKDFVNWLLNTC (bridge 16-20) [triple agonist of SEQ ID NO: 57] | < 0.1%
6 | H[Aib]QGTFTSDYSIAMDEIHQKDFVNWLLNTKC (bridge 16-20) [triple agonist of SEQ ID NO: 35] | < 0.1%
7 | H[Aib]QGTFTSDVSSYLLGQQQKEFIAWLVKGC [triple agonist of SEQ ID NO: 4] | < 0.1%
8 | H[Aib]EGTFTSDYSIAMDEIHQKDFVDWLLAEC (bridge 16-20) [triple agonist of SEQ ID NO: 54] | 1.4%
9 | H[Aib]QGTFTSDYSKYLDEKRQKEFVQWLLNTC (bridge 16-20) [triple agonist of SEQ ID NO: 51] | 2%
10 | H[Aib]QGTFTSDYSIAMDEIHQKDFVNWLLAQC (bridge 16-20) [triple agonist of SEQ ID NO: 55] | 0.7%
11 | H[Aib]QGTFTSDKSKYLDERACQDFVQWLLDGGPSSGAPPPS [triple agonist of SEQ ID NO: 40] | < 0.1%
12 | H[Aib]QGTFTSDYSKYLCEKRQKEFVQWLLNGGPSSGAPPPSG (bridge 16-20) [triple agonist of SEQ ID NO: 36] | 0.39%
13 | H[Aib]QGTFTSDYSKYLDEKRQKEFVQWLLDTC (bridge 16-20) [triple agonist of SEQ ID NO: 52] | 7.5%
14 | H[Aib]EGTFTSDYSIAMDEIHQKDFVNWLLAQC (bridge 16-20) [triple agonist of SEQ ID NO: 53] | 8.4%

These binders were tested against T1, human GIP receptor (assay: cell-based or functional assay).

Row | Binder | In vitro activity compared with native peptide (%) vs GIP (cAMP EC50)
15 | H[Aib]QGTFTSDYSKYLDGQHAQCFVAWLLAGGGPSSGAPPPS [triple agonist of SEQ ID NO: 39] | < 0.1%
16 | B1 | 0.8%
17 | H[Aib]QGTFTSDVSSYLLGQQQKEFIAWLVKGGGPSSGAPPPSC [triple agonist of SEQ ID NO: 5] | < 0.1%
18 | H[Aib]QGTFTSDVSSYLDGQAAKEFIAWLVKGC [triple agonist of SEQ ID NO: 1] | < 0.1%
19 | H[Aib]QGTFTSDYSIAMDEIHQKDFVNWLLNTC (bridge 16-20) [triple agonist of SEQ ID NO: 57] | 0.3%
20 | H[Aib]QGTFTSDYSIAMDEIHQKDFVNWLLNTKC (bridge 16-20) [triple agonist of SEQ ID NO: 35] | 1.3%
21 | H[Aib]QGTFTSDVSSYLLGQQQKEFIAWLVKGC [triple agonist of SEQ ID NO: 4] | < 0.1%
22 | H[Aib]EGTFTSDYSIAMDEIHQKDFVDWLLAEC (bridge 16-20) [triple agonist of SEQ ID NO: 54] | 0.1%
23 | H[Aib]QGTFTSDYSKYLDEKRQKEFVQWLLNTC (bridge 16-20) [triple agonist of SEQ ID NO: 51] | 0.1%
24 | H[Aib]QGTFTSDYSIAMDEIHQKDFVNWLLAQC (bridge 16-20) [triple agonist of SEQ ID NO: 55] | 2.4%
25 | H[Aib]QGTFTSDKSKYLDERACQDFVQWLLDGGPSSGAPPPS [triple agonist of SEQ ID NO: 40] | < 0.1%
26 | H[Aib]QGTFTSDYSKYLCEKRQKEFVQWLLNGGPSSGAPPPSG (bridge 16-20) [triple agonist of SEQ ID NO: 36] | 0.2%
27 | H[Aib]QGTFTSDYSKYLDEKRQKEFVQWLLDTC (bridge 16-20) [triple agonist of SEQ ID NO: 52] | 0.3%
28 | H[Aib]EGTFTSDYSIAMDEIHQKDFVNWLLAQC (bridge 16-20) [triple agonist of SEQ ID NO: 53] | 1.3%

The binders below were run against human GLP-1 receptor (human, UniProt P43220 24-463) (assay: cell-based or functional assay).

Row | Binder | In vitro activity compared with native peptide (%) vs GLP-1 (cAMP EC50)
29 | [Acetyl(2-(4-imidazolyl))][Aib]QGTFTSDKSSYLDERAAQDFVQWLLDGGPSSGAPPPSS [triple agonist of SEQ ID NO: 38] | 2.3%
30 | H[Aib]QGTFTSDYSKYLDGQHAQCFVAWLLAGGGPSSGAPPPS [triple agonist of SEQ ID NO: 39] | 13.9%
31 | B1 | 57.9%
32 | H[Aib]QGTFTSDVSSYLLGQQQKEFIAWLVKGGGPSSGAPPPSC [triple agonist of SEQ ID NO: 5] | 42.1%
33 | H[Aib]QGTFTSDVSSYLDGQAAKEFIAWLVKGC [triple agonist of SEQ ID NO: 1] | 3.2%
34 | H[Aib]QGTFTSDYSIAMDEIHQKDFVNWLLNTC (bridge 16-20) [triple agonist of SEQ ID NO: 57] | 11.7%
35 | H[Aib]QGTFTSDYSIAMDEIHQKDFVNWLLNTKC (bridge 16-20) [triple agonist of SEQ ID NO: 35] | 7.5%
36 | H[Aib]QGTFTSDVSSYLLGQQQKEFIAWLVKGC [triple agonist of SEQ ID NO: 4] | 8.5%
37 | H[Aib]EGTFTSDYSIAMDEIHQKDFVDWLLAEC (bridge 16-20) [triple agonist of SEQ ID NO: 54] | 30.6%
38 | H[Aib]QGTFTSDYSKYLDEKRQKEFVQWLLNTC (bridge 16-20) [triple agonist of SEQ ID NO: 51] | 14.4%
39 | H[Aib]QGTFTSDYSIAMDEIHQKDFVNWLLAQC (bridge 16-20) [triple agonist of SEQ ID NO: 55] | 27.1%
40 | H[Aib]QGTFTSDKSKYLDERACQDFVQWLLDGGPSSGAPPPS [triple agonist of SEQ ID NO: 40] | 75.2%
41 | H[Aib]QGTFTSDYSKYLCEKRQKEFVQWLLNGGPSSGAPPPSG (bridge 16-20) [triple agonist of SEQ ID NO: 36] | 37.4%
42 | H[Aib]QGTFTSDYSKYLDEKRQKEFVQWLLDTC (bridge 16-20) [triple agonist of SEQ ID NO: 52] | 44.1%
43 | H[Aib]EGTFTSDYSIAMDEIHQKDFVNWLLAQC (bridge 16-20) [triple agonist of SEQ ID NO: 53] | 161%
